Results taken from patent publication US20240301385, “DNA MODIFYING ENZYMES AND ACTIVE FRAGMENTS AND VARIANTS THEREOF AND METHODS OF USE” (LIFEEDIT THERAPEUTICS, INC., published 2024).

Target: T1, APG30125-L32-nAPG07433.1 (synthetic)
T1 chain: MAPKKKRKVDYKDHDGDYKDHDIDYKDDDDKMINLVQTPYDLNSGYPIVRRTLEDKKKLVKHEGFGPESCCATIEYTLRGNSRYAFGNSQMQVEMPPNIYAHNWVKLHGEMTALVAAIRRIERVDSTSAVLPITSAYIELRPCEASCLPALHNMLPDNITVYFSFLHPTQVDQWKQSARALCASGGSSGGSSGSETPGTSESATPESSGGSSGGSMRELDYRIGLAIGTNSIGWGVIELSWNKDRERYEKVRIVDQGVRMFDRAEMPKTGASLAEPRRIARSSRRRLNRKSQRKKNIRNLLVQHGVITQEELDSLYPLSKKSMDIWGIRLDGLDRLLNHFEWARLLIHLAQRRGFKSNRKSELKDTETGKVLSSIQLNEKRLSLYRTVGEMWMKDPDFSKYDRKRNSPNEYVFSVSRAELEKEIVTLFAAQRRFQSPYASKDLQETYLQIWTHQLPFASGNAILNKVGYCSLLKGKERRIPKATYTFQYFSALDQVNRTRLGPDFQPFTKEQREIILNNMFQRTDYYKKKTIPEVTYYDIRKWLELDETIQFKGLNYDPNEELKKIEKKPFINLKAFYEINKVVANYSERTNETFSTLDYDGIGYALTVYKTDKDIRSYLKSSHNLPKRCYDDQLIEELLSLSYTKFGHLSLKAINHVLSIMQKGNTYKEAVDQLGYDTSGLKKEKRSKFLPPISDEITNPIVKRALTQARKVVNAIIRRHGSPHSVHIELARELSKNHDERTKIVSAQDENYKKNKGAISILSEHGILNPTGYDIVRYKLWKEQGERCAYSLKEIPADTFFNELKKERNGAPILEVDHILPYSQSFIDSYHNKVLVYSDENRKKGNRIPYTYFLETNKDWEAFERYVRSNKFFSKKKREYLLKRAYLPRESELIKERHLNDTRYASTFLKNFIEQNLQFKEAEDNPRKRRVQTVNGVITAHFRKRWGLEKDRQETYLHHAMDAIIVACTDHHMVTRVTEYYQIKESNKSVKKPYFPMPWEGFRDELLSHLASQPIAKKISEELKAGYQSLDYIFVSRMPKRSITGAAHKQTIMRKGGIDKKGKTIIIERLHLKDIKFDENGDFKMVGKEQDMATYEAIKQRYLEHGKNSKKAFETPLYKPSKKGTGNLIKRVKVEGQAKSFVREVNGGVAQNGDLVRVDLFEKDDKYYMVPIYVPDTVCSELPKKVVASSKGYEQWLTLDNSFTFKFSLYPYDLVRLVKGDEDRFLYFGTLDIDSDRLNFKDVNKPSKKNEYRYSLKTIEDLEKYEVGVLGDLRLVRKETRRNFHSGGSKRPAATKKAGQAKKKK
Test: cell_activity; HEK293FT; PAM SEQ 152
Conditions: tags: SV40 NLS, 3xFLAG N-term; nucleoplasmin NLS C-term
Summary of the method: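 Editing read out by next-generation sequencing (MiSeq 2×250) of PCR amplicons spanning the target site, analysed for INDELs or % cytosine conversion per position (position 1 nearest PAM).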

B1: SGN000929 sgRNA ; SGN000929 target (ssRNA ; dsDNA)
RNA: AUCUGGAGGGAACUUACAGCAUAUGGUCAUAGUUCCAUGAAAGCCAAAAGUGGCUUUGAUGUUUCUAUGAUAAGGGUUUCGGCCCGUGGCGUCGGGGAUCGCCUGCCCAUUCCGAUGGGCUUCUCCCCAUUUAUU
DNA 1: ATCTGGAGGGAACTTACAGCATATG
DNA 2: CATATGCTGTAAGTTCCCTCCAGAT
activity: 7.39 % mutated reads

B2: SGN000169 sgRNA ; SGN000169 target (ssRNA ; dsDNA)
RNA: CACAUCUCGAGCAAGACGUUGUCAUAGUUCCAUUAAAGCCAAAAGUGGCUUUGAUGUUUCUAUGAUAAGGGUUUCGACCCGUGGCGUCGGGGAUCGCCUGCCCAUUGAAAUGGGCUUCUCCCCAUUUAUU
DNA 1: CACATCTCGAGCAAGACGTT
DNA 2: AACGTCTTGCTCGAGATGTG
activity: 6.89 % mutated reads
